Experiment [1] has as its target T1, recombinant human CLCF1 (cardiotrophin-like cytokine factor 1), residues 28-225 (UniProt Q9UBD9 28-225).
T1 chain: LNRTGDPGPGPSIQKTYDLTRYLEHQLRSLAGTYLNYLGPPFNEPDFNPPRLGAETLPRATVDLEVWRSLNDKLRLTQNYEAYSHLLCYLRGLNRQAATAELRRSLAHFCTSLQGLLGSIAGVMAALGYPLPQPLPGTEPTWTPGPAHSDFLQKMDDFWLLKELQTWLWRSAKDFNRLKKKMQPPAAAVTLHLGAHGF
Kind of experiment: yeast display flow cytometry; apparent Kd, ±0.006. On the technique in general: In flow cytometry, cells or beads pass a laser one at a time.

In experiment [2] the target is T1, recombinant human CLCF1 …. Kind of experiment: yeast display flow cytometry; apparent Kd, ±0.07.
Experiment [3] addresses T1, recombinant human CLCF1 …. Kind of experiment: yeast display flow cytometry; apparent Kd, ±0.02.
For experiment [4], the target named is T1, recombinant human CLCF1 …. Kind of experiment: yeast display flow cytometry; apparent Kd, ±5.
Experiment [5] deals with T1, recombinant human CLCF1 …. Put plainly: yeast display flow cytometry; apparent Kd, ±0.4.
The target in experiment [6] is T1, recombinant human CLCF1 …. Kind of experiment: ELISA; ±6. A general note: In an ELISA, binding on a coated surface is turned into a signal by an enzyme label.
Experiment [7] addresses T2, recombinant human CLCF1 (cardiotrophin-like cytokine factor 1), residues 28-225 (human, UniProt Q9UBD9 28-225).
T2 construct: Only one recombinant CLCF1 preparation is described; also called CLCF1-His; not shown: His tag (named CLCF1-His, detected with anti-HIS antibody)
T2 sequence: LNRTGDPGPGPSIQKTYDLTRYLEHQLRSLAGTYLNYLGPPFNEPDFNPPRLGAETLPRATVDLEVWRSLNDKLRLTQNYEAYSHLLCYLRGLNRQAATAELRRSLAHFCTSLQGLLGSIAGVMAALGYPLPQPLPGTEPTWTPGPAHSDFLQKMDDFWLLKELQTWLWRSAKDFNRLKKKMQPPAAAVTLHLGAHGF
Kind of experiment: microtiter plate-based assay (capture of the CNTFR construct, detection with anti-CLCF1).

Experiment [8] deals with T2, recombinant human CLCF1 …. Kind of experiment: yeast display, flow cytometry titration with CLCF1. The source says: Directed evolution was used to engineer a soluble CNTFR variant with stronger affinity for CLCF1 and lack of binding to gp130 and LIFR. It was hypothesized that such a molecule would act as an efficient ligand trap and antagonize CLCF1-mediated oncogenic signaling. To develop a high-affinity receptor decoy, DNA encoding the extracellular domain of CNTFR was subjected to random mutagenesis via error-prone PCR. […] The library was screened to enrich for variants with increased CLCF1 binding using flow cytometry. After 3 rounds of screening, T174P and S237F appeared as consensus mutations, with substantial diversity observed at other amino acid positions. To probe additive effects of these mutations, 20 randomly selected distinct clones from the sorted populations were shuffled using the Staggered Extension Process (StEP) method to create a second library. A combination of equilibrium binding and kinetic off-rate screens were used to sort this library to impose increased screening stringency (FIG. 2, panel C). […]
Yeast displaying the CNTFR constructs were incubated with varying concentrations of CLCF1 for 12 h at room temperature to reach equilibrium binding. […] Then samples were washed and analyzed by flow cytometry using BD Accuri flow cytometer. Samples were analyzed on BD Bioscience software, and data were analyzed using FlowJo software (Treestar Inc).

Experiment [9] concerns the target T1, recombinant human CLCF1 …. Kind of experiment: yeast display flow cytometry; apparent Kd, ±3.
Experiment [10] concerns the target T1, recombinant human CLCF1 …. Kind of experiment: yeast display flow cytometry; apparent Kd, ±0.003.
Experiment [11] concerns the target T3, recombinantly produced CNTF (ciliary neurotrophic factor) (Homo sapiens (Human), UniProt P26441 1-200).
T3 sequence: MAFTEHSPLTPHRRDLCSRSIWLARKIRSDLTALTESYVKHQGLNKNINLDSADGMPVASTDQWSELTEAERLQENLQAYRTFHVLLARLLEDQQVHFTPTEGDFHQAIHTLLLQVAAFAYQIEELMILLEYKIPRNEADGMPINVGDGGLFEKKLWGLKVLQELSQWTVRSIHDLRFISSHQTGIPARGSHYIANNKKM
Put plainly: microtiter plate-based binding assay.

In experiment [12] the target is T4, mouse CLCF1 (mouse, UniProt Q9QZM3 28-225).
T4 sequence (looked up): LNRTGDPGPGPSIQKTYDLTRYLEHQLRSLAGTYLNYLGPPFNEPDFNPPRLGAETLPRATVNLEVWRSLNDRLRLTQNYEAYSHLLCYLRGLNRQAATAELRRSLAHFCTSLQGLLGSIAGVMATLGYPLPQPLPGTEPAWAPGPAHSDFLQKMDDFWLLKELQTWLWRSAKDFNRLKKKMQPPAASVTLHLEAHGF
Put plainly: microtiter plate-based binding assay.

Experiment [13] addresses T5, mouse CLCF1 (mouse, UniProt Q9QZM3 28-225).
T5 chain: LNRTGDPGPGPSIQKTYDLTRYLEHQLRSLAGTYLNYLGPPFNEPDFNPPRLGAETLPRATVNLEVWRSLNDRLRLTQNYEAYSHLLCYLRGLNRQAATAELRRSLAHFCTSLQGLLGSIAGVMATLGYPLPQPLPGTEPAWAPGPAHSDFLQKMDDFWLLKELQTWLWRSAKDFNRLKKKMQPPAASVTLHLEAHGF
Put plainly: ELISA; ±7.

For experiment [14], the target named is T1, recombinant human CLCF1 …. Kind of experiment: ELISA; ±4.

This note sets out measurements from patent US20220331401A1 (Stanford University, published 2022).

B1: Variant 3 (T174P, S237F, I287F) (protein)
chain: MAAPVPWACCAVLAAAAAVVYAQRHSPQEAPHVQYERLGSDVTLPCGTANWDAAVTWRVNGTDLAPDLLNGSQLVLHGLELGHSGLYACFHRDSWHLRHQVLLHVGLPPREPVLSCRSNTYPKGFYCSWHLPTPTYIPNTFNVTVLHGSKIMVCEKDPALKNRCHIRYMHLFSPIKYKVSISVSNALGHNATAITFDEFTIVKPDPPENVVARPVPSNPRRLEVTWQTPSTWPDPEFFPLKFFLRYRPLILDQWQHVELSDGTAHTITDAYAGKEYIIQVAAKDNEFGTWSDWSVAAHATPWTEEPRHLTTEAQAAETTTSTTSSLAPPPTTKICDPGELGSGGGPSAPFLVSVPITLALAAAAATASSLLI
Turning to B1, the Kd in experiment [1] came to 0.049 nM.

B2: Variant 5 (S237F, I287F) (protein)
chain: MAAPVPWACCAVLAAAAAVVYAQRHSPQEAPHVQYERLGSDVTLPCGTANWDAAVTWRVNGTDLAPDLLNGSQLVLHGLELGHSGLYACFHRDSWHLRHQVLLHVGLPPREPVLSCRSNTYPKGFYCSWHLPTPTYIPNTFNVTVLHGSKIMVCEKDPALKNRCHIRYMHLFSTIKYKVSISVSNALGHNATAITFDEFTIVKPDPPENVVARPVPSNPRRLEVTWQTPSTWPDPEFFPLKFFLRYRPLILDQWQHVELSDGTAHTITDAYAGKEYIIQVAAKDNEFGTWSDWSVAAHATPWTEEPRHLTTEAQAAETTTSTTSSLAPPPTTKICDPGELGSGGGPSAPFLVSVPITLALAAAAATASSLLI
In the case of B2, the Kd in experiment [2] was determined as 0.04 nM.

B3: Variant 2 (T174P, S237F) (protein)
chain: MAAPVPWACCAVLAAAAAVVYAQRHSPQEAPHVQYERLGSDVTLPCGTANWDAAVTWRVNGTDLAPDLLNGSQLVLHGLELGHSGLYACFHRDSWHLRHQVLLHVGLPPREPVLSCRSNTYPKGFYCSWHLPTPTYIPNTFNVTVLHGSKIMVCEKDPALKNRCHIRYMHLFSPIKYKVSISVSNALGHNATAITFDEFTIVKPDPPENVVARPVPSNPRRLEVTWQTPSTWPDPEFFPLKFFLRYRPLILDQWQHVELSDGTAHTITDAYAGKEYIIQVAAKDNEIGTWSDWSVAAHATPWTEEPRHLTTEAQAAETTTSTTSSLAPPPTTKICDPGELGSGGGPSAPFLVSVPITLALAAAAATASSLLI
As to B3, the Kd in [3] is 0.89 nM.

B4: Neg sort (R110Q, T174P, Y177H, K178N, S237F, I287F) (protein)
chain: MAAPVPWACCAVLAAAAAVVYAQRHSPQEAPHVQYERLGSDVTLPCGTANWDAAVTWRVNGTDLAPDLLNGSQLVLHGLELGHSGLYACFHRDSWHLRHQVLLHVGLPPQEPVLSCRSNTYPKGFYCSWHLPTPTYIPNTFNVTVLHGSKIMVCEKDPALKNRCHIRYMHLFSPIKHNVSISVSNALGHNATAITFDEFTIVKPDPPENVVARPVPSNPRRLEVTWQTPSTWPDPEFFPLKFFLRYRPLILDQWQHVELSDGTAHTITDAYAGKEYIIQVAAKDNEFGTWSDWSVAAHATPWTEEPRHLTTEAQAAETTTSTTSSLAPPPTTKICDPGELGSGGGPSAPFLVSVPITLALAAAAATASSLLI
As for B4, in [4], the Kd is 0.014 nM.

B5: Variant 1 (S237F) (protein)
chain: MAAPVPWACCAVLAAAAAVVYAQRHSPQEAPHVQYERLGSDVTLPCGTANWDAAVTWRVNGTDLAPDLLNGSQLVLHGLELGHSGLYACFHRDSWHLRHQVLLHVGLPPREPVLSCRSNTYPKGFYCSWHLPTPTYIPNTFNVTVLHGSKIMVCEKDPALKNRCHIRYMHLFSTIKYKVSISVSNALGHNATAITFDEFTIVKPDPPENVVARPVPSNPRRLEVTWQTPSTWPDPEFFPLKFFLRYRPLILDQWQHVELSDGTAHTITDAYAGKEYIIQVAAKDNEIGTWSDWSVAAHATPWTEEPRHLTTEAQAAETTTSTTSSLAPPPTTKICDPGELGSGGGPSAPFLVSVPITLALAAAAATASSLLI
With B5, the Kd in [5] was 41 nM.

B6: soluble eCNTFR with a C-terminal hexahistidine tag (receptor)
chain: QRHSPQEAPHVQYERLGSDVTLPCGTANWDAAVTWRVNGTDLAPDLLNGSQLVLHGLELGHSGLYACFHRDSWHLRHQVLLHVGLPPQEPVLSCRSNTYPKGFYCSWHLPTPTYIPNTFNVTVLHGSKIMVCEKDPALKNRCHIRYMHLFSPIKHNVSISVSNALGHNATAITFDEFTIVKPDPPENVVARPVPSNPRRLEVTWQTPSTWPDPEFFPLKFFLRYRPLILDQWQHVELSDGTAHTIAAAYAGKEYIIQVAAKDNEFGTWSDWSVAAHATPWTEEPRHLTTEAQAAETTTSTTSSLAPPPTTKICDPGELGS
notes: also called eCNTFR-His; not shown: C-terminal hexahistidine tag
For the molecule B6, the Kd in experiment [6] came out at 0.075 nM. For the same molecule, the binding result in experiment [7] was “binds”.

B7: yeast-displayed CNTFR variant 4 (R110Q, T174P, S237F, I287F) (receptor)
chain: AVVYAQRHSPQEAPHVQYERLGSDVTLPCGTANWDAAVTWRVNGTDLAPDLLNGSQLVLHGLELGHSGLYACFHRDSWHLRHQVLLHVGLPPQEPVLSCRSNTYPKGFYCSWHLPTPTYIPNTFNVTVLHGSKIMVCEKDPALKNRCHIRYMHLFSPIKYKVSISVSNALGHNATAITFDEFTIVKPDPPENVVARPVPSNPRRLEVTWQTPSTWPDPEFFPLKFFLRYRPLILDQWQHVELSDGTAHTITDAYAGKEYIIQVAAKDNEFGTWSDWSVAAHATPWTEEPRHLTTEAQAAETTTSTTSSLAPPPTTKICDPGELGS
notes: not shown: Aga2p fusion partner and linkers of the pCTCON2 yeast display plasmid; c-Myc tag used to detect expression
As for B7, the Kd is 0.02 nM in [8], 0.019 nM in [9] and 0.019 nM in experiment [10].

B8: soluble eCNTFR fused to an antibody Fc domain (Fc fusion)
chain: QRHSPQEAPHVQYERLGSDVTLPCGTANWDAAVTWRVNGTDLAPDLLNGSQLVLHGLELGHSGLYACFHRDSWHLRHQVLLHVGLPPQEPVLSCRSNTYPKGFYCSWHLPTPTYIPNTFNVTVLHGSKIMVCEKDPALKNRCHIRYMHLFSPIKHNVSISVSNALGHNATAITFDEFTIVKPDPPENVVARPVPSNPRRLEVTWQTPSTWPDPEFFPLKFFLRYRPLILDQWQHVELSDGTAHTIAAAYAGKEYIIQVAAKDNEFGTWSDWSVAAHATPWTEEPRHLTTEAQAAETTTSTTSSLAPPPTTKICDPGELGSRRLEPRGPTIKPCPPCKCPAPNLLGGPSVFIFPPKIKDVLMISLSPIVTCVVVDVSEDDPDVQISWFVNNVEVHTAQTQTHREDYNSTLRVVSALPIQHQDWMSGKEFKCKVNNKDLPAPIERTISKPKGSVRAPQVYVLPPPEEEMTKKQVTLTCMVTDFMPEDIYVEWTNNGKTELNYKNTEPVLDSDGSYFMYSKLRVEKKNWVERNSYSCSVVHEGLHNHHTTKSFSRTPGK
notes: The tie is the identical set of eight mutations plus an Fc domain; also called eCNTFR-Fc
B8: the binding result is “no binding” in experiment [11], “binds” in the experiment with mouse CLCF1 [12] and “binds” in experiment [7]. The results for the Kd (with mouse CLCF1 [13]; in experiment [14]) were 0.131 nM and 0.063 nM, respectively.
